In patent publication EP4818210A1:

What was measured:
[1] = biological target: Her2/ERBB2 Protein, Human, Recombinant (ECD, His Tag) (human) (UniProt P04626); experiment: ELISA, control on human HER2 antigen
[2] = biological target: Her2/ERBB2 Protein, Human, Recombinant (ECD, His Tag) (human) (UniProt P04626); experiment: ELISA, E. coli lysate supernatant on human HER2 antigen

## Irrelevant
[1]
  OD450: 0.073 OD450

B1: M26H2-2002 (VHH)
VHH: QVQLVESGGGLVQPGGSLRLSCAASGFIFGNYPMNWYRQAPGKEREFVAVITRDGGVTRYAASVKGRFTITRDNAKNTVFLQMNSLKLEDTAVYYCHNPNYNAWGQGTQVTVAS
[2]
  OD450: 0.804 OD450

B2: M26H2-3134 (VHH)
VHH: QVQLVESGGGMVQPGGSLRLSCAASGITFRHYTMSWYRQAPGKERELVASITYGGVTTNYADSVKGRFTLSRDDAKTTAYLQMTGLKPEDTAVYYCHADWTAAGLNHWGQGTQVTVSS
[2]
  OD450: 1.03 OD450
